Experiment [1] has as its target T1, mouse EphB3 extracellular region-Fc-His protein (mouse; human, UniProt P54754 30-554).
T1 construct: extracellular domain; not shown: Fc region of human IgG1; histidine tag
T1 sequence (looked up): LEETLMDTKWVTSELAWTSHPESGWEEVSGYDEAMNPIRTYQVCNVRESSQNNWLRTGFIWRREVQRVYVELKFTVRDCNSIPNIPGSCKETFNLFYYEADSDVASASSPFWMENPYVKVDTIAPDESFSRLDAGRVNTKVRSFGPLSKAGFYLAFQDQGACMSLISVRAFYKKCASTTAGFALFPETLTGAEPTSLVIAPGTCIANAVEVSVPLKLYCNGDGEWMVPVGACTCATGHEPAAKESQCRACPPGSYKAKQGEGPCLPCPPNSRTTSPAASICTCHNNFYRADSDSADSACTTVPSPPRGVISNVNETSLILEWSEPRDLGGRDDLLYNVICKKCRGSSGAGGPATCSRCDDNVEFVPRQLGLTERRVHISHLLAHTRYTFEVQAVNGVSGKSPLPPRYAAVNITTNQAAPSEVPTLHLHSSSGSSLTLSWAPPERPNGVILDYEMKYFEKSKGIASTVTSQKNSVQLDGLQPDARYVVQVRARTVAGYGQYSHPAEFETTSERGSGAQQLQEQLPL
As to the kind of experiment: ELISA: Fc-His proteins (1 nM) captured on anti-6-His antibody, antibody B 10 µg/mL with human IgG 100 µg/mL, HRP anti-human kappa light chain antibody, OD450 as % of mouse EphA4-Fc-His. The protocol:
Rabbit anti-6-His antibodies (Bethyl Laboratories) were coated onto the wells of a 96-well plate (Nunc). After incubating at 4° C. overnight, the wells were blocked at room temperature for 1 hour by 1% Block Ace (DS Pharma Biomedical). After washing 3 times with 0.05% Tween 20/PBS (Thermo […]), each Eph receptor of mouse extracellular region-Fc-His protein (final concentration 1 nM) was seeded into each well, and incubated at room temperature for 1 hour. After washing 3 times, human IgG solution (100 μg/mL, Sigma) and antibody B (10 μg/mL) were supplemented to the wells, and incubated at room temperature for 1 hour. Horseradish peroxidase-labeled goat anti-human Kappa Light Chain antibody (IBL) was added, and incubated at room temperature for 1 hour. After washing 3 times, TMBZ (3,3′,5,5′-tetramethylbenzidine, Sigma) solution was added to the wells, and upon confirmation of modest coloring, an equal amount of quenching solution (1 N H₂SO₄, Wako Pure Chemicals) was added to the wells, and absorbance at 450 nm was read by a microplate reader (PerkinElmer).
A general note: ELISA stands for enzyme-linked immunosorbent assay.

For experiment [2], the target named is T2, mouse EphA4 extracellular region-SEAP-His protein (mouse).
T2 construct: also called mouse EphA4 extracellular region-SEAP-His 10
T2 sequence (chain, as listed by the source limits assumed): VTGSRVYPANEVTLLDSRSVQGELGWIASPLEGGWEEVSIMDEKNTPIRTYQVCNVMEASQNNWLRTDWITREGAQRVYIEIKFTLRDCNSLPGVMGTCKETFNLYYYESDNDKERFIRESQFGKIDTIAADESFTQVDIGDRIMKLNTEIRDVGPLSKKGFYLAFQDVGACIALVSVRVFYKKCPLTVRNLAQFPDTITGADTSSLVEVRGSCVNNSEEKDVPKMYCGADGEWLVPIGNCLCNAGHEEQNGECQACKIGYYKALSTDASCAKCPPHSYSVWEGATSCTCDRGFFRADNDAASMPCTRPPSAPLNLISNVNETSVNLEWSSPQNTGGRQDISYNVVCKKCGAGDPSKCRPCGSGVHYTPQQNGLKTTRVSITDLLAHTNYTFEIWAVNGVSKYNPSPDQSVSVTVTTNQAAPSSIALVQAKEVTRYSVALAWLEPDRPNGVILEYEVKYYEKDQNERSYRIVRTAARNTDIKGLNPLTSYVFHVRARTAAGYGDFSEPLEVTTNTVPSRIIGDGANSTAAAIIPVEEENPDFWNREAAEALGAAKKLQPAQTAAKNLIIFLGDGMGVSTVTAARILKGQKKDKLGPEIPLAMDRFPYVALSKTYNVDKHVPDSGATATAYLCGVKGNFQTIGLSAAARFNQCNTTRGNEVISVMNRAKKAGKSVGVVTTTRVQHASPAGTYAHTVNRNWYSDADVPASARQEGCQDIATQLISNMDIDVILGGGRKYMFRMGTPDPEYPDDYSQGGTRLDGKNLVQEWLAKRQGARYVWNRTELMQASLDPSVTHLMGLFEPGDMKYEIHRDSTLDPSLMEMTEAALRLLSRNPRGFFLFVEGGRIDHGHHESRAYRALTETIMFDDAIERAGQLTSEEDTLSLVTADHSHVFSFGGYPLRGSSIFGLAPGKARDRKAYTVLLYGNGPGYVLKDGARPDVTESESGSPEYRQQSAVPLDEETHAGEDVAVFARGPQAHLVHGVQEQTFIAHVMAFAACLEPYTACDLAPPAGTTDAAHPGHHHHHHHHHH
As to the kind of experiment: SPR, Biacore T200; EphA4 extracellular region-SEAP-His captured on anti-His chip, antibody as analyte, 1:1 model. The protocol:
The binding affinity of antibody A against mouse and human EphA4 was determined by surface plasmon resonance (SPR method) employing Biacore T200 (GE Healthcare). First, anti-His antibodies (GE Healthcare, 28-9950-56) were fixed to a sensor chip CM5. Fixation was carried out by amine coupling method employing N-hydroxysuccinimide (NHS) and N-ethyl-N′-(3-dimethylaminopropyl) carbodiimide hydrochloride salt (EDC), and ethanolamine was employed for blocking (the sensor chip and reagents for fixation are all from GE Healthcare). This was diluted with the fixation buffer (10 mM sodium acetate, pH 4.5) to 3.5 μg/mL, and fixed onto the sensor chip according to the protocol accompanying Biacore T200. Mouse or human EphA4 extracellular region-SEAP-His 10 was diluted with the running buffer HBS-EP (GE Healthcare, BR-1001-88), and the solution was sent and captured onto the flow cell for 120 seconds (about 10 RU of captured amount). Subsequently, antibody A serially diluted to a range of 100, 50, 25, 12.5, 6.3, 3.2, 1.6, 0 nM with HBS-EP was added to the sensor chip for 120 seconds, and the binding reaction curve at the time of addition (binding phase, 120 seconds) and after completing the addition (dissociation phase, 600 seconds) was sequentially observed. Upon completion of each observation, 4 M MgCl₂ (60 seconds, Wako Pure Chemicals) was added to regenerate the sensor chip. Fitting analysis by 1:1 binding model employing the software accompanying the system, BIA evaluation software, was carried out against the binding reaction curve obtained, and the binding affinity (KD=kd/ka) against mouse and human EphA4 was calculated.
The binding affinity of antibody B obtained in Example 1 against human EphA4 was determined by surface plasmon resonance (SPR method) employing Biacore T200 (GE Healthcare). First, anti-His antibodies (GE Healthcare, 28-9950-56) were fixed to a sensor chip CMS. […]
For orientation: SPR reads the build-up and loss of mass on a sensor chip optically.

A further experiment concerns the target MBP. Put plainly: ELISA: human EphA4 domain-MBP-His proteins (10 nM) captured on anti-6-His antibody, antibody A 10 nM, HRP anti-mouse IgG Fc fragment antibody, OD450-OD650. Here is the method: For antibody A, the evaluation of binding activity with various domains in human EphA4 was carried cut according to the following steps.
Rabbit anti-6-His antibodies (Bethyl Laboratories) were coated onto the wells of a 96-well plate (Nunc). After incubating at 4° C. overnight, the wells were blocked at room temperature for 1 hour by 1% Block Ace (DS Pharma Biomedical). After washing twice with 0.02% Tween 20/PBS (Nacalai Tesque), human EphA4 extracellular region-MBP-His protein, human EphA4 ligand binding domain-MBP-His protein, human EphA4 fibronectin type III domain 1-NBP-His protein, and human EphA4 fibronectin type III domain 2-MBP-His protein (final concentration 10 nM) were seeded into the wells, and incubated at room temperature for 1 hour. After washing 3 times, antibody A (final concentration 10 nM) was supplemented to the wells, and incubated at room temperature for 1 hour. Horseradish peroxidase-labeled goat anti-mouse IgG Fcγ fragment antibody (Jackson ImmunoResearch Laboratories) was added, and incubated at room temperature for 1 hour. After washing 5 times, TMB solution (KPL) was added to the wells, and upon confirmation of modest coloring, an equal amount of quenching solution (2 N H₂SO₄, Wako Pure Chemicals) was added to the wells, and absorbance at 450 nm and 650 nm were read by a microplate reader (PerkinElmer).

B1: humanized anti-EphA4 monoclonal antibody (antibody B) (antibody, human IgG2, V domains shown)
VH: QVQLVESGGGVVQPGRSLRLSCAVSGFSLTRFGVHWVRQAPGKGLEWVAVIWRGGSTDYNAAFMSRLTISKDNSKNTVYLQMNSLRAEDTAVYYCAKESLFGVYYDYGYYSMDYWGQGTTVTVSS
VL: DIQMTQSPSSLSASVGDRVTITCRASQEISGYLSWLQQKPGKAPKRLIYAASTLDSGVPSRFSGSRSGTEYTLTISSLQPEDFATYYCLQYASYPLTFGGGTKVEIKR
notes: expressed in Expi293F cells; also called humanized antibody of antibody A; HK2-42 / L1-8
In the case of B1, the binding result in experiment [1] was “no binding (tested: 10 µg/mL)”.

B2: mouse anti-EphA4 monoclonal antibody (antibody A) (antibody, mouse IgG1, kappa, V domains shown)
VH: QVQLKQSGPSLVQPSQSLSITCTVSGFSLTRYGVHWVRQSPGKGLEWLGVIWRGGSTDYNAAFMSRLSITKDNSKSQVFFKMNSLQADDTAIYYCAKESLFGVYYDYGYYSMDYWGQGTSVTVSS
VL: DIQMTQSPSSLSASLGERVSLTCRASQEISGYLSWLQQKPDGTIKRLIYAASTLDSGVPKRFSGSRSGSDYSLTISSLESEDFADYYCLQYASYPLTFGAGTKLELKR
notes: purified from hybridoma supernatant
The Kd is the concentration at which binding is half-saturated. Read a low Kd as tighter binding. Regarding B2, the Kd in experiment [2] stood at 1.32 nM. For the same molecule, in the experiment with MBP, the binding result is “no binding (tested: 10 nM)”.
